Experiments:
[1] = substrate: O=c1cc(-c2ccc(O)c(O)c2)oc2cc(O)c([C@@H]3O[C@H](CO)[C@@H](O)[C@H](O)[C@H]3O)c(O)c12; test: O-methyltransferase assay, UPLC, Michaelis-Menten fit; assay type: biochemical, Isatis tinctoria; conditions: 480 μM SAM, Tris-HCl pH 8.0, 45 °C
From the text: (§1) O-methyltransferase assay, UPLC, Michaelis-Menten fit on IiOMT1

[2] = substrate: O=c1cc(-c2ccc(O)c(O)c2)oc2cc(O)cc(O)c12; test: as above; assay type: biochemical, Isatis tinctoria; conditions: 480 μM SAM, Tris-HCl pH 8.0, 45 °C
From the text: as §1

B1: IiOMT1 (Isatis tinctoria) (protein)
chain: MATTTTEATKTSTNGEDKQSQNLRHQEVGHKSLLQSDDLYQYILETSVYPREPESMKELREVTAKHPWNIMTTSADEGQFLNMLIKLINAKNTMEIGVYTGYSLLATALALPEDGKILAMDVNRENYELGLPIIEKAGVAHKIDFREGPALPVLDQLVADEKNHGTYDFIFVDADKDNYINYHKRLIDLVKVGGVIGYDNTLWNGSVVAAPDAPMRKYVRYYRDFVLELNKALAADPRIEICMLPVGDGITICRRIN
notes: N-terminal His6-SUMO tag kept (pE-SUMO), E. coli Rosetta (DE3), Ni-NTA
Km [1]: 75.56 ± 8.21 µM | kcat [1]: 0.304 s⁻¹ | kcat/Km [1]: 4040 M⁻¹ s⁻¹ | Km [2]: 113.5 ± 10.41 µM | kcat [2]: 0.413 s⁻¹ | kcat/Km [2]: 3650 M⁻¹ s⁻¹
